In assay [1] the target is T1, Cyno His-GDF15: HIS-tagged cyno GDF15 (cynomolgus, UniProt G7PWZ3 197-308, limits assumed).
T1 construct: not shown: His tag
T1 sequence (looked up): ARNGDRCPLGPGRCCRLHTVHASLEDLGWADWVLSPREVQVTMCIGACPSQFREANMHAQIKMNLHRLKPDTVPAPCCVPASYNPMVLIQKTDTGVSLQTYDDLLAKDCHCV
As to the kind of experiment: Biacore SPR, IgG captured via anti-human Fc, GDF15 in flow. Here is the method:
(§1) Biacore assay is based on surface plasmon resonance (SPR) and were used to determine the binding affinity of antibodies to GDF15.
(§2) Anti-human Fc capture antibody was immobilized at 0.5 μg/ml on CMS chip in all four flow cells to achieve 8000 to 12,000 resonance units (RU) on the surface. Anti-hGDF15 antibodies were captured at flow rate […], at 0.25 to 0.5 μg/ml on the chip to get about 30 RU in flow cells 2, 3 and 4. GDF15 ligand was flowed at […] over captured antibodies and reference flow cell 1 for 600 and 1200 seconds contact time. Eight doses serially diluted 1 to 2, ranging from 20 to 0.156 nM, were tested. All cycles were repeated twice, regenerated between cycles with 3M MgCl₂ at flow […], 20 seconds contact time. Data were normalized by subtracting reference flow cell results. Data were fit with 1:1 Kinetics model with RI (bulk refractive index) set constant at 0.
A general note: Surface plasmon resonance follows binding to a sensor surface in real time, without labels.

Assay [2] deals with T2, Mouse His-GDF15: HIS-tagged mouse GDF15 (mouse, UniProt Q9Z0J7 189-303).
T2 construct: not shown: His tag
T2 sequence (looked up): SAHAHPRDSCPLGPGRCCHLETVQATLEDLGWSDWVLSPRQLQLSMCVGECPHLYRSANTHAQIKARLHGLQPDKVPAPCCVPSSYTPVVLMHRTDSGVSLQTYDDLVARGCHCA
The assay is described as above. On the procedure: as §1, §2

Assay [3] addresses T3, Rat GDF15 HIS: HIS-tagged rat GDF15 (rat, UniProt Q9Z0J6 189-303, limits assumed).
T3 construct: also called Rat His-GDF15; not shown: His tag
T3 sequence (looked up): T2 sequence (looked up) with A4L, Q63L, K75R, R110Q
Described as above. On the procedure: as §1, §2

The target of assay [4] is T4, GDF15 mutant M253R (wrist region), albumin fusion (human, UniProt Q99988 195-308).
T4 construct: not shown: albumin fusion partner
T4 chain: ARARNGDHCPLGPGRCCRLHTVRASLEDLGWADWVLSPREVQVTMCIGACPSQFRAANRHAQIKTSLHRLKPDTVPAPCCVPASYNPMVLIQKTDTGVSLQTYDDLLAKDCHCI
As to the kind of experiment: direct ELISA on coated albumin-fusion GDF15 variant. On the procedure: (§3) Antibody epitope was determined by a direct ELISA method with GDF15 mutants. Albumin fusion GDF15 mutants were coated in wells of a 96-well EIA plate. After blocking, serially diluted anti-hGDF15 human antibodies were added to the GDF15-coated wells, followed by incubation at an ambient temperature for a few hours. Antibody binding was detected using an anti-human IgG antibody conjugated with horseradish peroxidase (HRP) and HRP substrate.

The target of assay [5] is T5, GDF15 mutant Q247R (wrist region), albumin fusion (human, UniProt Q99988 195-308).
T5 construct: not shown: albumin fusion partner
T5 chain: T4 chain with Q53R, R59M
The assay is described as above. On the procedure:
as §3

Positions count from the first letter of the chain named.

B1: ABGDF15-D (antibody, human IgG1, lambda, V domains shown)
VH: EVQLVQSGAEVKKPGESLKISCKGSGYSFTSYWIGWVRQMPGKGLEWMGVIDPDGSYTIYSPSFQGQVTISADKSISTAYLQWSSLKASDTAMYYCARYGRYGTYFDYWGQGTLVTVSS
VL: QSVLTQPPSVSGAPGQRVTISCSGSSSNIGVLYVNWYQQLPGTAPKLLIYSNDNRPSGVPDRFSGSKSGTSASLAITGLQAEDEADYYCQSWDSSSNYVFGGGTKLTVLG
notes: captured through anti-human Fc in the Biacore assay
As to B1, the figures for the dissociation constant Kd in assay [1], in assay [2] and in assay [3] were 14.1 pM, 45.7 pM and 28.1 pM, respectively. The koff (usually the rate constant with which the complex falls apart) was 0.000236 s⁻¹ in assay [1], 0.000509 s⁻¹ in assay [2] and 0.000456 s⁻¹ in assay [3]. In addition, the results for the kon in assay [1], in assay [2] and in assay [3] were 1.67e+07 M⁻¹ s⁻¹, 1.11e+07 M⁻¹ s⁻¹ and 1.62e+07 M⁻¹ s⁻¹, respectively. The binding result in assay [4] and in assay [5] was “binds” throughout.

B2: ABGDF15-E (antibody, human IgG1, lambda, V domains shown)
VH: B1 VH with D54G
VL: B1 VL
notes: as for B1
In the case of B2, the Kd (as a rule, a measure of binding affinity in units of concentration) in assay [1] is 30.3 pM; in assay [2], 79 pM; in assay [3], 39.6 pM. Besides, the koff in assay [1] turned out to be 0.00038 s⁻¹; in assay [2] it was 0.000535 s⁻¹; in assay [3], 0.000428 s⁻¹. Moreover, the kon (as a rule, the rate constant with which the complex forms) in assay [1] was found to be 1.26e+07 M⁻¹ s⁻¹; in assay [2] it was 6.78e+06 M⁻¹ s⁻¹; in assay [3] it was 1.08e+07 M⁻¹ s⁻¹. Moreover, the binding result in assay [4] and in assay [5] was “binds” throughout.

The values above are taken from US20190135908A1 (Novartis, published 2019).
